The source of these data is publication PMC4407828 (Nature communications, 2015).

The target of the assay is GST-Tip60 (UniProt Q92993 1-513). The assay is described as follows: pull-down.
GST-Tip60, sequence (Q92993 whole entry): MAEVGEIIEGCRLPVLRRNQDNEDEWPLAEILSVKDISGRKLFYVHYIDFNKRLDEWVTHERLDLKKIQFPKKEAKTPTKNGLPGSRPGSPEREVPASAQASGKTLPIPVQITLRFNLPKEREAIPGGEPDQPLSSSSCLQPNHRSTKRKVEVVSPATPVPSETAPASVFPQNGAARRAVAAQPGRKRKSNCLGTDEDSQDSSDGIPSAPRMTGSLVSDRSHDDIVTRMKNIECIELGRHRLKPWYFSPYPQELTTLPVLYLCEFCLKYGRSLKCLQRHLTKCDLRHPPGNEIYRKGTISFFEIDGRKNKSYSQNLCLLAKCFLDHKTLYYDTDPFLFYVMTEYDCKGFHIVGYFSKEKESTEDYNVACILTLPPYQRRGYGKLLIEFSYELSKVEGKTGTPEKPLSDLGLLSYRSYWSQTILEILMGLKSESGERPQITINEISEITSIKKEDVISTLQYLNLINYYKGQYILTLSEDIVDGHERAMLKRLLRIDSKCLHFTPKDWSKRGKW

B1: His-ATF3 (natural protein, UniProt P18847 1-181, looked up)
chain: MMLQHPGQVSASEVSASAIVPCLSPPGSLVFEDFANLTPFVKEELRFAIQNKHLCHRMSSALESVTVSDRPLGVSITKAEVAPEEDERKKRRRERNKIAAAKCRNKKKEKTECLQKESEKLESVNAELKAQIEELKNEKQHLIYMLNLHRPTCIVRAQNGRTPEDERNLFIQQIKEGTLQS
With B1, the binding result is “binds”.
